Legend:
Assay type in all cases: physicochemical
[1] = system: azocasein; assay: Stability of Me-trypsin versus other trypsin analogs in a Part I composition (azocasein method); details: for % Activity Remaining: 45° C., 50% L-sorbose 1% borax, pH 5.79 (acetylated trypsin pH 7.54)
Procedure: Azocasein Method The following solutions are used in this assay: 1) Buffer solution: 0.05 M sodium phosphate buffer containing 0.9% sodium chloride, pH 7.6. 2) Substrate solution: 2 mg/ml azocasein in the buffer solution mentioned above. The assay is initiated by mixing 1 ml of an appropriately diluted (such that the enzyme activity is in the range of standard curve) enzyme composition in phosphate buffer with 2 ml of azocasein substrate solution (2 mg/ml). After incubation at 37° C. for 20 minutes, the mixture is removed from the incubator and 1 ml of trichloroacetic acid to (14% w/v) is added to stop the enzyme reaction. The mixture is vortexed well and allowed to stand at room temperature for 20 minutes. After centrifuging at 2500 rpm (with a Beckman GS-6R Centrifuge) for 15 minutes, the supernatant is filtered with a serum sampler. 2 ml of the clear yellow filtrate is then adjusted to a neutral pH with 2 ml of 0.5 N sodium hydroxide and the absorbance of 440 nm wavelength light is measured with a spectrophotometer. The amount of azocasein hydrolyzed is calculated based on a standard curve of known concentrations of azocasein solution developed under identical conditions. An enzyme activity unit (“AZ U”) is defined as that amount of enzyme which hydrolyzes 1 μg of azocasein substrate/minute at 37° C. […] The enzymes were solubilized in a Part I composition containing 50% (w/v) L-sorbose 1% (w/v) borax (Na2B4O7.10H2O), at pH 5.79, except the acetylated trypsin composition was at pH 7.54. The compositions were stored at 45° C. for 240 hours. At various time points, enzyme activity was assayed using the azocasein method.

[2] = system: azocasein; assay: Thermal stability of Me-trypsin and trypsin in a disinfecting solution (Example 5C), azocasein method; details: Example 5C composition, 50 μg/ml
Procedure: Azocasein Method The following solutions are used in this assay: 1) Buffer solution: 0.05 M sodium phosphate buffer containing 0.9% sodium chloride, pH 7.6. 2) Substrate solution: 2 mg/ml azocasein in the buffer solution mentioned above. The assay is initiated by mixing 1 ml of an appropriately diluted (such that the enzyme activity is in the range of standard curve) enzyme composition in phosphate buffer with 2 ml of azocasein substrate solution (2 mg/ml). After incubation at 37° C. for 20 minutes, the mixture is removed from the incubator and 1 ml of trichloroacetic acid to (14% w/v) is added to stop the enzyme reaction. The mixture is vortexed well and allowed to stand at room temperature for 20 minutes. After centrifuging at 2500 rpm (with a Beckman GS-6R Centrifuge) for 15 minutes, the supernatant is filtered with a serum sampler. 2 ml of the clear yellow filtrate is then adjusted to a neutral pH with 2 ml of 0.5 N sodium hydroxide and the absorbance of 440 nm wavelength light is measured with a spectrophotometer. The amount of azocasein hydrolyzed is calculated based on a standard curve of known concentrations of azocasein solution developed under identical conditions. An enzyme activity unit (“AZ U”) is defined as that amount of enzyme which hydrolyzes 1 μg of azocasein substrate/minute at 37° C. The following is an example of the stability of Me-trypsin in a disinfecting composition of the present invention as compared to an analogous composition containing trypsin. The enzymes were solubilized in the Example 5C composition. The two compositions were incubated at 35° C. or 40° C. At the appointed time, aliquots were tested for enzyme activity by the azocasein method. Activity levels were compared with initial levels and expressed as percent remaining activity.

[3] = system: azocasein; assay: Enzyme stability of the Example 6 multi-purpose composition versus trypsin or pancreatin compositions, azocasein method; details: Me-trypsin: Example 6 composition, trypsin/pancreatin: 1.4 mL of Example 3B analog in 120 mL of Example 2B
Procedure: Azocasein Method The following solutions are used in this assay: 1) Buffer solution: 0.05 M sodium phosphate buffer containing 0.9% sodium chloride, pH 7.6. 2) Substrate solution: 2 mg/ml azocasein in the buffer solution mentioned above. The assay is initiated by mixing 1 ml of an appropriately diluted (such that the enzyme activity is in the range of standard curve) enzyme composition in phosphate buffer with 2 ml of azocasein substrate solution (2 mg/ml). After incubation at 37° C. for 20 minutes, the mixture is removed from the incubator and 1 ml of trichloroacetic acid to (14% w/v) is added to stop the enzyme reaction. The mixture is vortexed well and allowed to stand at room temperature for 20 minutes. After centrifuging at 2500 rpm (with a Beckman GS-6R Centrifuge) for 15 minutes, the supernatant is filtered with a serum sampler. 2 ml of the clear yellow filtrate is then adjusted to a neutral pH with 2 ml of 0.5 N sodium hydroxide and the absorbance of 440 nm wavelength light is measured with a spectrophotometer. The amount of azocasein hydrolyzed is calculated based on a standard curve of known concentrations of azocasein solution developed under identical conditions. An enzyme activity unit (“AZ U”) is defined as that amount of enzyme which hydrolyzes 1 μg of azocasein substrate/minute at 37° C. […] The trypsin or pancreatin compositions were prepared by dispersing 1.4 mL of Example 3B (wherein Me-trypsin was replaced by either trypsin or pancreatin) in 120 mL of Example 2B. The compositions were incubated at room temperature, 30° and 35° C. At the appointed time, aliquots were tested for enzyme activity by the azocasein method. Activity levels were compared with initial levels and expressed as percent remaining activity.

Substance	% Activity Remaining ([1]; 0 Hr.)	% Activity Remaining ([1]; 64 Hr.)	% Activity Remaining ([1]; 96 Hr.)	% Activity Remaining ([1]; 120 Hr.)	% Activity Remaining ([1]; 144 Hr.)	% Activity Remaining ([1]; 240 Hr.)	% Activity Remaining ([2]; 35° C., 24 hrs)	% Activity Remaining ([2]; 35° C., 48 hrs)	% Activity Remaining ([2]; 35° C., 72 hrs)	% Activity Remaining ([2]; 35° C., 168 hrs)	% Activity Remaining ([2]; 40° C., 24 hrs)	% Activity Remaining ([2]; 40° C., 114 hrs)	% Activity Remaining ([2]; 40° C., 168 hrs)	% Remaining Activity ([3]; 30° C., 1 week)	% Remaining Activity ([3]; 30° C., 2 weeks)	% Remaining Activity ([3]; 30° C., 3 weeks)	% Remaining Activity ([3]; 30° C., 4 weeks)	% Remaining Activity ([3]; 30° C., 6 weeks)	% Remaining Activity ([3]; 30° C., 8 weeks)	% Remaining Activity ([3]; 35° C., 1 week)	further results
Trypsin [Native Trypsin, reference compound]	100.0%	62.9%	56.8%	53.1%	49.1%	41.4%	69.9%	55.9%	48.5%	37.6%	42.4%	19.4%	17.4%	65.7%	54.6%	47.1%	44.9%	35.8%	30.4%	30.8%	% Remaining Activity ([3]; 35° C., 2 weeks): 19.9%; % Remaining Activity ([3]; 35° C., 3 weeks): 13.3%; % Remaining Activity ([3]; 35° C., 4 weeks): 12.8%; % Remaining Activity ([3]; 35° C., 6 weeks): 8.8%; % Remaining Activity ([3]; 35° C., 8 weeks): 5.2%; % Remaining Activity ([3]; RT, 1 week): 93.5%; % Remaining Activity ([3]; RT, 2 weeks): 86.8%; % Remaining Activity ([3]; RT, 3 weeks): 82.5%; % Remaining Activity ([3]; RT, 4 weeks): 79.5%; % Remaining Activity ([3]; RT, 6 weeks): 71.0%; % Remaining Activity ([3]; RT, 8 weeks): 64.2%
methyl trypsin [Me-Trypsin]	100.0%	89.4%	86.3%	84.7%	82.2%	76.1%	97.6%	96.4%	91.6%	87.3%	88.9%	75.2%	67.0%	97.0%	97.2%	91.1%	90.6%	85.8%	83.0%	82.1%	enzyme stability in a Part I composition over other trypsin related enzyme compositions ([1]; summary of Table 1): superior enzyme stability; % Remaining Activity ([3]; 35° C., 2 weeks): 75.0%; % Remaining Activity ([3]; 35° C., 3 weeks): 71.4%; % Remaining Activity ([3]; 35° C., 4 weeks): 65.2%; % Remaining Activity ([3]; 35° C., 6 weeks): 55.9%; % Remaining Activity ([3]; 35° C., 8 weeks): 50.3%; % Remaining Activity ([3]; RT, 1 week): 101.3%; % Remaining Activity ([3]; RT, 2 weeks): 99.6%; % Remaining Activity ([3]; RT, 3 weeks): 98.4%; % Remaining Activity ([3]; RT, 4 weeks): 98.1%; % Remaining Activity ([3]; RT, 6 weeks): 96.0%; % Remaining Activity ([3]; RT, 8 weeks): 96.4%
